Data on five molecules can be found in publication PMC12207404, “Significance of the CTP-binding motif for the interactions of S. coelicolor ParB with DNA, chromosome segregation, and sporogenic hyphal growth” (Nucleic Acids Research, 2025).

The test system of series [1] is ScParB (Streptomyces coelicolor). The series can be described thus: BLI. The conditions noted are these: no CTP, BLI: 100 mM Tris-HCl pH 8.0, 100 mM NaCl, 1 mM MgCl2, 0.005% Tween 20, 30 C, EMSA: 100 mM Tris-HCl pH 8.0, 100 mM NaCl, 10% glycerol, 1 mM DTT, 1 mM EDTA …. (In general: In EMSA bound probe runs differently from free probe, usually more slowly.)
For series [2], the target named is T1, ScParB (S. coelicolor ParB) (Streptomyces coelicolor, UniProt Q9RFM2).
T1 construct: full-length; N-terminal GST fusion from pGEX-6P-1_parB, GST removed with PreScission protease; expressed in E. coli BL21 pLysS; dimer
T1 sequence (Q9RFM2 entry or part of it): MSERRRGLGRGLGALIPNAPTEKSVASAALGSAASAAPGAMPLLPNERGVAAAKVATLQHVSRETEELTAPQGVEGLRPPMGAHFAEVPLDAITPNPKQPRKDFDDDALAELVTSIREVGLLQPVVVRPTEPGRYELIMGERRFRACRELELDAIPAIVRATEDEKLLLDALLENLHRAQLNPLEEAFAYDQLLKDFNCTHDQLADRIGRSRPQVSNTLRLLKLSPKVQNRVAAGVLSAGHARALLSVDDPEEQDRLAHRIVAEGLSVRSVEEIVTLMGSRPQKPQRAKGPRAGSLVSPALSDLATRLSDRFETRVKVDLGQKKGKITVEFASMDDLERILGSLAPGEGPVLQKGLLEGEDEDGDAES
The series is described as follows: TNP-CTP fluorescence enhancement at […] nm. Type of series: binding. The conditions noted are these: 1 μM protein, 5 μM TNP-CTP, no DNA, 1 mM MgCl2, pH 8.0, room temperature; labelled compound.

Series [3] deals with the molecule itself. The series can be described thus: cross-linking; glutaraldehyde (0.03%, 0.06% or 0.12%), 4 μM ScParB variant, 100 mM Tris-HCl pH 8.0, 100 mM NaCl, 1 mM MgCl2, 0.005% Tween 20, 30°C, 30 min; optionally 4 mM CTP or 4 μM 34-bp parS dsDNA; SDS-PAGE, Coomassie, percent of dimer and HMW complex of the lane's total signal.
Series [4] deals with the molecule itself. The series can be described thus: two-hybrid; bacterial two-hybrid (BACTH): pUT18C and pKT25 derivatives cotransformed into E. coli BTH101; blue colonies on LB agar with X-gal and 0.5 mM IPTG, 30°C, and β-galactosidase activity (Miller units).

In the case of 300-bp parS, two-end biotin, in series [1] (Discussion prints 176), the equilibrium dissociation constant (Kd) (as a rule, the constant that tells how readily two partners part at equilibrium) worked out at 167 nM.
Consider `Nc1ccn([C@@H]2O[C@H](COP(=O)(O)OP(=O)(O)OP(=O)(O)O)[C@H]3OC4(O[C@H]32)C([N+](=O)[O-])=CC(=[N+]([O-])O)C=C4[N+](=O)[O-])c(=O)n1` (some centres unmarked) [TNP-CTP, 2′,3′-O-trinitrophenyl-cytidine-5′-triphosphate], for which the “relative fluorescence (RU)” value in series [2] came out at 1.16 ± 0.06 RU.
In turn, 300-bp parS, one-end biotin came in with a Kd in series [1] of 271 nM.

B1: ScParB^R142A, purified recombinant (natural protein)
chain: MSERRRGLGRGLGALIPNAPTEKSVASAALGSAASAAPGAMPLLPNERGVAAAKVATLQHVSRETEELTAPQGVEGLRPPMGAHFAEVPLDAITPNPKQPRKDFDDDALAELVTSIREVGLLQPVVVRPTEPGRYELIMGEARFRACRELELDAIPAIVRATEDEKLLLDALLENLHRAQLNPLEEAFAYDQLLKDFNCTHDQLADRIGRSRPQVSNTLRLLKLSPKVQNRVAAGVLSAGHARALLSVDDPEEQDRLAHRIVAEGLSVRSVEEIVTLMGSRPQKPQRAKGPRAGSLVSPALSDLATRLSDRFETRVKVDLGQKKGKITVEFASMDDLERILGSLAPGEGPVLQKGLLEGEDEDGDAES
notes: source: E. coli BL21 (DE) pLysS, purified (Glutathione Sepharose 4B, cleaved with PreScission protease); not shown: GST, N-terminal, cleaved
Turning to B1, the “fold enhancement of dimerization against wild-type ScParB” value in series [3] was at most 3 fold.

B2: ScParB^R142A, bacterial two-hybrid fusion (natural protein)
chain: B1 chain
notes: also called R142A-substituted variant; source: bacterial two-hybrid fusion (pUT18C and pKT25 derivatives), in E. coli BTH101
As to B2, the “fold enhancement of dimerization against wild-type ScParB” value in series [4] is at most 3 fold.
